Legend:
[1] = molecular target: modified BID with an HCV NS3 cleavage site (human) (UniProt P55957); assay: cell-based or functional assay
[2] = molecular target: Mod.Caspase 3/172(NS5A/B) (human) (UniProt P42574); assay: cell-based or functional assay

| Substance | cell death, FACS analysis of living EGFP positive CHOP cells, (+) NS3 Protease [1] [% cell death] | cell death, FACS analysis of living EGFP positive CHOP cells, (+) NS3 Protease [2] [% cell death] | AnnexinV positive H9C2 cells, FACS, 24 hours (% more cells than control) [1] | AnnexinV positive H9C2 cells, FACS, 24 hours, no VAD-fmk [1] [%] |
| --- | --- | --- | --- | --- |
| HCV NS3/NS4A protease (from UniProt P27958 1027-1657; P27958 1658-1711) (enzyme) | > 30 | > 30 |  |  |
| single-chain HCV protease (NS4A-NS3) (from UniProt P27958 1678-1689; P27958 1029-1207) (enzyme) |  |  | 50 | 60 |

Source: patent US20040043949A1
